Patent publication US20190025332A1

Key:
[1] = target: wild type human MIC-1 (human) (UniProt Q99988); test: SPR blocking; wtMIC-1 mixed with 0.5 nM mIgG1, over immobilised mGFRAL(ECR)-Fab; RU of wtMIC-1 binding
[2] = target: wild type human MIC-1 (human) (UniProt Q99988); test: SPR blocking; wtMIC-1 mixed with 4 nM mIgG1, over immobilised hGFRAL(ECR)-Fab; RU of wtMIC-1 binding
[3] = target: wild type human MIC-1 (human) (UniProt Q99988); test: SPR blocking; wtMIC-1 mixed with 0.5 nM mIgG1, over immobilised hGFRAL(ECR)-Fab; RU of wtMIC-1 binding
[4] = target: wild type human MIC-1 (human) (UniProt Q99988); test: SPR blocking; wtMIC-1 mixed with 0.125 nM mIgG1, over immobilised hGFRAL(ECR)-Fab; RU of wtMIC-1 binding
[5] = target: wild type human MIC-1 (human) (UniProt Q99988); test: SPR blocking; wtMIC-1 mixed with 1 nM mIgG1, over immobilised hGFRAL(ECR)-Fab; RU of wtMIC-1 binding
[6] = target: wild type human MIC-1 (human) (UniProt Q99988); test: SPR blocking; wtMIC-1 mixed with 8 nM mIgG1, over immobilised mGFRAL(ECR)-Fab; RU of wtMIC-1 binding
[7] = target: wild type human MIC-1 (human) (UniProt Q99988); test: SPR blocking; wtMIC-1 mixed with 8 nM mIgG1, over immobilised hGFRAL(ECR)-Fab; RU of wtMIC-1 binding
[8] = target: wild type human MIC-1 (human) (UniProt Q99988); test: SPR blocking; wtMIC-1 mixed with 0 nM mIgG1, over immobilised hGFRAL(ECR)-Fab; RU of wtMIC-1 binding
[9] = target: wild type human MIC-1 (human) (UniProt Q99988); test: SPR blocking; wtMIC-1 mixed with 1 nM mIgG1, over immobilised mGFRAL(ECR)-Fab; RU of wtMIC-1 binding
[10] = target: wild type human MIC-1 (human) (UniProt Q99988); test: SPR blocking; wtMIC-1 mixed with 2 nM mIgG1, over immobilised mGFRAL(ECR)-Fab; RU of wtMIC-1 binding
[11] = target: wild type human MIC-1 (human) (UniProt Q99988); test: SPR blocking; wtMIC-1 mixed with 0 nM mIgG1, over immobilised mGFRAL(ECR)-Fab; RU of wtMIC-1 binding
[12] = target: wild type human MIC-1 (human) (UniProt Q99988); test: SPR blocking; wtMIC-1 mixed with 4 nM mIgG1, over immobilised mGFRAL(ECR)-Fab; RU of wtMIC-1 binding
[13] = target: wild type human MIC-1 (human) (UniProt Q99988); test: SPR blocking; wtMIC-1 mixed with 0.125 nM mIgG1, over immobilised mGFRAL(ECR)-Fab; RU of wtMIC-1 binding
[14] = target: wild type human MIC-1 (human) (UniProt Q99988); test: SPR blocking; wtMIC-1 mixed with 0.25 nM mIgG1, over immobilised hGFRAL(ECR)-Fab; RU of wtMIC-1 binding
[15] = target: wild type human MIC-1 (human) (UniProt Q99988); test: SPR blocking; wtMIC-1 mixed with 0.25 nM mIgG1, over immobilised mGFRAL(ECR)-Fab; RU of wtMIC-1 binding
[16] = target: wild type human MIC-1 (human) (UniProt Q99988); test: SPR blocking; wtMIC-1 mixed with 2 nM mIgG1, over immobilised hGFRAL(ECR)-Fab; RU of wtMIC-1 binding

Chain of wild type human MIC-1 (human) (Q99988 197-308 limits assumed): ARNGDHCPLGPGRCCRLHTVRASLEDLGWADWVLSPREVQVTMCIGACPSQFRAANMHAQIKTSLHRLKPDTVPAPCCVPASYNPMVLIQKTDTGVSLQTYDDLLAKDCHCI

Response (RU) [1]: 55 RU
Response (RU) [2]: 59.1 RU
Response (RU) [3]: 58.4 RU
Response (RU) [4]: 58.4 RU
Response (RU) [5]: 59.3 RU
Response (RU) [6]: 55.5 RU
Response (RU) [7]: 59.4 RU
Response (RU) [8]: 58.3 RU
Response (RU) [9]: 54.1 RU
Response (RU) [10]: 54.5 RU
Response (RU) [11]: 55.6 RU
Response (RU) [12]: 55.4 RU
Response (RU) [13]: 55.3 RU
Response (RU) [14]: 59.4 RU
Response (RU) [15]: 54.6 RU
Response (RU) [16]: 60 RU
Substance: isotype control (mIgG1) (antibody)
